Experimental data: paper PMC10540216, “Activity Guided Azide-methyllysine Photo-trapping for Substrate Profiling of Lysine Demethylases” (Journal of the American Chemical Society, 2023)

B1: ERP44_HUMAN (protein, UniProt Q9BS26 30-406, looked up)
Endoplasmic reticulum …: EITSLDTENIDEILNNADVALVNFYADWCRFSQMLHPIFEEASDVIKEEFPNENQVVFARVDCDQHSDIAQRYRISKYPTLKLFRNGMMMKREYRGQRSVKALADYIRQQKSDPIQEIRDLAEITTLDRSKRNIIGYFEQKDSDNYRVFERVANILHDDCAFLSAFGDVSKPERYSGDNIIYKPPGHSAPDMVYLGAMTNFDVTYNWIQDKCVPLVREITFENGEELTEEGLPFLILFHMKEDTESLEIFQNEVARQLISEKGTINFLHADCDKFRHPLLHIQKTPADCPVIAIDSFRHMYVFGDFKDVLIPGKLKQFVFDLHSGKLHREFHHGPDPTDTAPGEQAQDVASSPPESSFQKLAPSEYRYTLLRDRDEL
B2: CBS_HUMAN (protein, UniProt P35520 1-551, looked up)
Cystathionine beta-synthase: MPSETPQAEVGPTGCPHRSGPHSAKGSLEKGSPEDKEAKEPLWIRPDAPSRCTWQLGRPASESPHHHTAPAKSPKILPDILKKIGDTPMVRINKIGKKFGLKCELLAKCEFFNAGGSVKDRISLRMIEDAERDGTLKPGDTIIEPTSGNTGIGLALAAAVRGYRCIIVMPEKMSSEKVDVLRALGAEIVRTPTNARFDSPESHVGVAWRLKNEIPNSHILDQYRNASNPLAHYDTTADEILQQCDGKLDMLVASVGTGGTITGIARKLKEKCPGCRIIGVDPEGSILAEPEELNQTEQTTYEVEGIGYDFIPTVLDRTVVDKWFKSNDEEAFTFARMLIAQEGLLCGGSAGSTVAVAVKAAQELQEGQRCVVILPDSVRNYMTKFLSDRWMLQKGFLKEEDLTEKKPWWWHLRVQELGLSAPLTVLPTITCGHTIEILREKGFDQAPVVDEAGVILGMVTLGNMLSSLLAGKVQPSDQVGKVIYKQFKQIRLTDTLGRLSHILEMDHFALVVHEQIQYHSTGKSSQRQMVFGVVTAIDLLNFVAAQERDQK
B3: TPP1_HUMAN (protein, UniProt O14773 196-563, looked up)
Tripeptidyl-peptidase 1: LHLGVTPSVIRKRYNLTSQDVGSGTSNNSQACAQFLEQYFHDSDLAQFMRLFGGNFAHQASVARVVGQQGRGRAGIEASLDVQYLMSAGANISTWVYSSPGRHEGQEPFLQWLMLLSNESALPHVHTVSYGDDEDSLSSAYIQRVNTELMKAAARGLTLLFASGDSGAGCWSVSGRHQFRPTFPASSPYVTTVGGTSFQEPFLITNEIVDYISGGGFSNVFPRPSYQEEAVTKFLSSSPHLPPSSYFNASGRAYPDVAALSDGYWVVSNRVPIPWVSGTSASTPVFGGILSLINEHRILSGRPPLGFLNPRLYQQHGAGLFDVTRGCHESCLDEEVEGQGFCSGPGWDPVTGWGTPNFPALLKTLLNP
B4: PDIP3_HUMAN (protein, UniProt Q9BY77 2-421, looked up)
Polymerase delta-interacting …: ADISLDELIRKRGAAAKGRLNARPGVGGVRSRVGIQQGLLSQSTRTATFQQRFDARQKIGLSDARLKLGVKDAREKLLQKDARFRIKGKVQDAREMLNSRKQQTTVPQKPRQVADAREKISLKRSSPAAFINPPIGTVTPALKLTKTIQVPQQKAMAPLHPHPAGMRINVVNNHQAKQNLYDLDEDDDGIASVPTKQMKFAASGGFLHHMAGLSSSKLSMSKALPLTKVVQNDAYTAPALPSSIRTKALTNMSRTLVNKEEPPKELPAAEPVLSPLEGTKMTVNNLHPRVTEEDIVELFCVCGALKRARLVHPGVAEVVFVKKDDAITAYKKYNNRCLDGQPMKCNLHMNGNVITSDQPILLRLSDSPSMKKESELPRRVNSASSSNPPAEVDPDTILKALFKSSGASVTTQPTEFKIKL
B5: GLYM_HUMAN (protein, UniProt P34897 30-504, looked up)
Serine …: NAAQTQTGEANRGWTGQESLSDSDPEMWELLQREKDRQCRGLELIASENFCSRAALEALGSCLNNKYSEGYPGKRYYGGAEVVDEIELLCQRRALEAFDLDPAQWGVNVQPYSGSPANLAVYTALLQPHDRIMGLDLPDGGHLTHGYMSDVKRISATSIFFESMPYKLNPKTGLIDYNQLALTARLFRPRLIIAGTSAYARLIDYARMREVCDEVKAHLLADMAHISGLVAAKVIPSPFKHADIVTTTTHKTLRGARSGLIFYRKGVKAVDPKTGREIPYTFEDRINFAVFPSLQGGPHNHAIAAVAVALKQACTPMFREYSLQVLKNARAMADALLERGYSLVSGGTDNHLVLVDLRPKGLDGARAERVLELVSITANKNTCPGDRSAITPGGLRLGAPALTSRQFREDDFRRVVDFIDEGVNIGLEVKSKTAKLQDFKSFLLKDSETSQRLANLRQRVEQFARAFPMPGFDEH
B6: SYYM_HUMAN (protein, UniProt Q9Y2Z4 17-477, looked up)
Tyrosine--tRNA ligase, …: TLNLSVLLPLGLRKAHSGAQGLLAAQKARGLFKDFFPETGTKIELPELFDRGTASFPQTIYCGFDPTADSLHVGHLLALLGLFHLQRAGHNVIALVGGATARLGDPSGRTKEREALETERVRANARALRLGLEALAANHQQLFTDGRSWGSFTVLDNSAWYQKQHLVDFLAAVGGHFRMGTLLSRQSVQLRLKSPEGMSLAEFFYQVLQAYDFYYLFQRYGCRVQLGGSDQLGNIMSGYEFINKLTGEDVFGITVPLITSTTGAKLGKSAGNAVWLNRDKTSPFELYQFFVRQPDDSVERYLKLFTFLPLPEIDHIMQLHVKEPERRGPQKRLAAEVTKLVHGREGLDSAKRCTQALYHSSIDALEVMSDQELKELFKEAPFSEFFLDPGTSVLDTCRKANAIPDGPRGYRMITEGGVSINHQQVTNPESVLIVGQHILKNGLSLLKIGKRNFYIIKWLQL
B7: PUR8_HUMAN (protein, UniProt P30566 2-484, looked up)
Adenylosuccinate lyase: AAGGDHGSPDSYRSPLASRYASPEMCFVFSDRYKFRTWRQLWLWLAEAEQTLGLPITDEQIQEMKSNLENIDFKMAAEEEKRLRHDVMAHVHTFGHCCPKAAGIIHLGATSCYVGDNTDLIILRNALDLLLPKLARVISRLADFAKERASLPTLGFTHFQPAQLTTVGKRCCLWIQDLCMDLQNLKRVRDDLRFRGVKGTTGTQASFLQLFEGDDHKVEQLDKMVTEKAGFKRAFIITGQTYTRKVDIEVLSVLASLGASVHKICTDIRLLANLKEMEEPFEKQQIGSSAMPYKRNPMRSERCCSLARHLMTLVMDPLQTASVQWFERTLDDSANRRICLAEAFLTADTILNTLQNISEGLVVYPKVIERRIRQELPFMATENIIMAMVKAGGSRQDCHEKIRVLSQQAASVVKQEGGDNDLIERIQVDAYFSPIHSQLDHLLDPSSFTGRASQQVQRFLEEEVYPLLKPYESVMKVKAELCL
B8: CATA_HUMAN (protein, UniProt P04040 2-527, looked up)
Catalase: ADSRDPASDQMQHWKEQRAAQKADVLTTGAGNPVGDKLNVITVGPRGPLLVQDVVFTDEMAHFDRERIPERVVHAKGAGAFGYFEVTHDITKYSKAKVFEHIGKKTPIAVRFSTVAGESGSADTVRDPRGFAVKFYTEDGNWDLVGNNTPIFFIRDPILFPSFIHSQKRNPQTHLKDPDMVWDFWSLRPESLHQVSFLFSDRGIPDGHRHMNGYGSHTFKLVNANGEAVYCKFHYKTDQGIKNLSVEDAARLSQEDPDYGIRDLFNAIATGKYPSWTFYIQVMTFNQAETFPFNPFDLTKVWPHKDYPLIPVGKLVLNRNPVNYFAEVEQIAFDPSNMPPGIEASPDKMLQGRLFAYPDTHRHRLGPNYLHIPVNCPYRARVANYQRDGPMCMQDNQGGAPNYYPNSFGAPEQQPSALEHSIQYSGEVRRFNTANDDNVTQVRAFYVNVLNEEQRKRLCENIAGHLKDAQIFIQKKAVKNFTEVHPDYGSHIQALLDKYNAEKPKNAIHTFVQSGSHLAAREKANL
B9: MCCB_HUMAN (protein, UniProt Q9HCC0 23-563, looked up)
Methylcrotonoyl-CoA …: YHGDSVASLGTQPDLGSALYQENYKQMKALVNQLHERVEHIKLGGGEKARALHISRGKLLPRERIDNLIDPGSPFLELSQFAGYQLYDNEEVPGGGIITGIGRVSGVECMIIANDATVKGGAYYPVTVKKQLRAQEIAMQNRLPCIYLVDSGGAYLPRQADVFPDRDHFGRTFYNQAIMSSKNIAQIAVVMGSCTAGGAYVPAMADENIIVRKQGTIFLAGPPLVKAATGEEVSAEDLGGADLHCRKSGVSDHWALDDHHALHLTRKVVRNLNYQKKLDVTIEPSEEPLFPADELYGIVGANLKRSFDVREVIARIVDGSRFTEFKAFYGDTLVTGFARIFGYPVGIVGNNGVLFSESAKKGTHFVQLCCQRNIPLLFLQNITGFMVGREYEAEGIAKDGAKMVAAVACAQVPKITLIIGGSYGAGNYGMCGRAYSPRFLYIWPNARISVMGGEQAANVLATITKDQRAREGKQFSSADEAALKEPIIKKFEEEGNPYYSSARVWDDGIIDPADTRLVLGLSFSAALNAPIEKTDFGIFRM
B10: IDHP_HUMAN (protein, UniProt P48735 40-452, looked up)
Isocitrate dehydrogenase …: ADKRIKVAKPVVEMDGDEMTRIIWQFIKEKLILPHVDIQLKYFDLGLPNRDQTDDQVTIDSALATQKYSVAVKCATITPDEARVEEFKLKKMWKSPNGTIRNILGGTVFREPIICKNIPRLVPGWTKPITIGRHAHGDQYKATDFVADRAGTFKMVFTPKDGSGVKEWEVYNFPAGGVGMGMYNTDESISGFAHSCFQYAIQKKWPLYMSTKNTILKAYDGRFKDIFQEIFDKHYKTDFDKNKIWYEHRLIDDMVAQVLKSSGGFVWACKNYDGDVQSDILAQGFGSLGLMTSVLVCPDGKTIEAEAAHGTVTRHYREHQKGRPTSTNPIASIFAWTRGLEHRGKLDGNQDLIRFAQMLEKVCVETVESGAMTKDLAGCIHGLSNVKLNEHFLNTTDFLDTIKSNLDRALGRQ
B11: CH60_HUMAN (protein, UniProt P10809 27-573, looked up)
60 kDa heat shock protein, …: AKDVKFGADARALMLQGVDLLADAVAVTMGPKGRTVIIEQSWGSPKVTKDGVTVAKSIDLKDKYKNIGAKLVQDVANNTNEEAGDGTTTATVLARSIAKEGFEKISKGANPVEIRRGVMLAVDAVIAELKKQSKPVTTPEEIAQVATISANGDKEIGNIISDAMKKVGRKGVITVKDGKTLNDELEIIEGMKFDRGYISPYFINTSKGQKCEFQDAYVLLSEKKISSIQSIVPALEIANAHRKPLVIIAEDVDGEALSTLVLNRLKVGLQVVAVKAPGFGDNRKNQLKDMAIATGGAVFGEEGLTLNLEDVQPHDLGKVGEVIVTKDDAMLLKGKGDKAQIEKRIQEIIEQLDVTTSEYEKEKLNERLAKLSDGVAVLKVGGTSDVEVNEKKDRVTDALNATRAAVEEGIVLGGGCALLRCIPALDSLTPANEDQKIGIEIIKRTLKIPAMTIAKNAGVEGSLIVEKIMQSSSEVGYDAMAGDFVNMVEKGIIDPTKVVRTALLDAAGVASLLTTAEVVVTEIPKEEKDPGMGAMGGMGGGMGGGMF
B12: ODBA_HUMAN (protein, UniProt P12694 46-445, looked up)
2-oxoisovalerate …: SSLDDKPQFPGASAEFIDKLEFIQPNVISGIPIYRVMDRQGQIINPSEDPHLPKEKVLKLYKSMTLLNTMDRILYESQRQGRISFYMTNYGEEGTHVGSAAALDNTDLVFGQYREAGVLMYRDYPLELFMAQCYGNISDLGKGRQMPVHYGCKERHFVTISSPLATQIPQAVGAAYAAKRANANRVVICYFGEGAASEGDAHAGFNFAATLECPIIFFCRNNGYAISTPTSEQYRGDGIAARGPGYGIMSIRVDGNDVFAVYNATKEARRRAVAENQPFLIEAMTYRIGHHSTSDDSSAYRSVDEVNYWDKQDHPISRLRHYLLSQGWWDEEQEKAWRKQSRRKVMEAFEQAERKPKPNPNLLFSDVYQEMPAQLRKQQESLARHLQTYGEHYPLDHFDK

System: KDM4A-I71AzF
Test: CASI: photo-crosslinking with HEK293T cell extracts, StrepTactin enrichment and LC-MS/MS proteomics;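 note: lysates from HEK293T cells pretreated with a KDM4 inhibitor to raise proteome methylation, affinity-purified after ±UV, gel-resolved, trypsin-digested, with exclusive unique peptides per protein averaged per condition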
Format: binding, human
Conditions: sheet "Final results but with 0.01"

| Molecule | Fold change (+UV/-UV) |
| --- | --- |
| B1 | 0.5 |
| B2 | 1.4 |
| B3 | 0 |
| B4 | 1 |
| B5 | 0.3333 |
| B6 | 2 |
| B7 | 0.3333 |
| B8 | 2 |
| B9 | 0.9333 |
| B10 | 0.4 |
| B11 | 1.043 |
| B12 | 1 |
